# Source: the RNAGym collection of RNA variant scans (doi:10.1073/pnas.2313332121)
# Fewer inactive variants are shown than the library holds.
# B1: TPR 5TU (parent)
# chain: GGAUCUUCUCGAUCUAACAAAAAAGACAAAUCUGCCACAAAGCUUGAGAGCAUCUUCGGAUGCAGAGGCGGCAGCCUUCGGUGGCGCGAUAGCGCCAACGUUCUCAACUAUGACACGCAAAACGCGUGCUCCGUUGAAUGGAGUUUAUCAUG
# Variants of: B1
# Assay: polymerase ribozyme fitness, log enrichment relative to wild type (log ratio); higher = more active; in vitro selection for triplet polymerase activity
# In short: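 PCR was used to build mutant libraries for each subunit of a heterodimeric triplet polymerase ribozyme, which were then transcribed. A single in vitro selection round, in triplicate, used a frozen incubation at −7 °C and recovered extended constructs by gel excision, streptavidin beads and RT-PCR. Fitness is the logarithm of genotype enrichment relative to wild-type enrichment, averaged over replicates with inverse-variance weights. The logarithm is base 2, and after Illumina sequencing only genotypes with ≥10 input reads and ≥1 read per output were kept.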
row,Variant,polymerase ribozyme fitness (log ratio)
1,A30C C38U G74A,≤ -4.2
2,A29C C108A A142U,≤ -4.2
3,C27G U31C G62C C63G C85U A142U,≤ -4.2
4,A30C C38G A49C U61A A66C G67C C93G A110U G124C G143A,≤ -4.2
5,A28U G133U A137C,≤ -4.2
6,A28U C63U C72U C93U C105G A142U,≤ -4.2
7,A30G C63A C99U,≤ -4.2
8,A30G G83U G117A,≤ -4.2
9,C27U A37C G50U C95A,-2.6
10,A29C U33A A41C U45A A91G,≤ -4.2
11,A30U C96U,-3.12
12,A28U U44G A60C C85A U144C U148A,≤ -4.2
13,A29C C57U U104G G128U,≤ -4.2
14,A28G A49G C54U C85A U144G,≤ -4.2
15,A30C A40C U56A A60G A66G A89U C93A C99U A106C G126U C131U U134A,≤ -4.2
16,A28U A49C U56A C95A C96U C108U G128U,≤ -4.2
17,A29U C54U U78C C99G C116U,≤ -4.2
18,A29C A30U A89C,≤ -4.2
19,C27G U33C U55A A97C A121G,≤ -4.2
20,C27U C36A A39C A41G G68A C93A A138G U139A,≤ -4.2
21,A30G G46A G70C U78G G86C A142C U146A,≤ -4.2
22,A28U U44A U55A U77G A120U,≤ -4.2
23,A30U C32A C54U C87A A107U,≤ -4.2
24,A30G A49G,≤ -4.2

row,Variant,polymerase ribozyme fitness (log ratio)
1,C27U A52C C85G C116G G128U A137G,≤ -4.2
2,C27U U53A G70U,-3.43
3,A28U U31C A91G C108U G136U A142G,≤ -4.2
4,A30G C38A U56A A107U A121C,≤ -4.2
5,A30U A39U G62A G70A A89C C129A A142C,≤ -4.2
6,A28U G88C A91U C118A,≤ -4.2
7,A29C A41G G46U A49G C75U G83A A121G G152U,≤ -4.2
8,A28G A37C A41C C69A C85U G133C,≤ -4.2
9,A28C G42A A113U C116U,≤ -4.2
10,A30G C123U G133U C149G,≤ -4.2
11,C27U G58A C63A G84U,-2.45
12,A30U C38U G50C U56G G83U A137C,≤ -4.2
13,A28U C38U G59U A60G G94A C95U C103U,≤ -4.2
14,C27U G70C A138G,≤ -4.2
15,A28U C51A C54U C85U C123G C129U,≤ -4.2
16,A29C A30C G62C C125G A137G A142U,-4.11
17,A28G U55A G67U A89C C129A G140C,≤ -4.2
18,A28U A64G G68U G83U A121C G143A,≤ -4.2
19,A29U C95A A106G U134A,≤ -4.2
20,C27U G62C C63U G94U U104C G152U,≤ -4.2
21,C27G U61A C93U C95U A97U G133U,≤ -4.2
22,A29U G92C C95U A106C C114U G128U A138G,≤ -4.2
23,C27G G152A,≤ -4.2
24,A28C A37G A47G A66C G86A A107U U135C,≤ -4.2

row,Variant,polymerase ribozyme fitness (log ratio)
1,A28G U55A G58C A122G,≤ -4.2
2,A28U G84U G86A G94A A98G C131A,≤ -4.2
3,A28C G67C C87A U109A,≤ -4.2
4,A29U U61A G74U C118A U130A,≤ -4.2
5,A30G C75G U82C C99A,≤ -4.2
6,A30G C54U A91U U102G U109G A110G G133C A147U,≤ -4.2
7,A30C U31A C75A C79A U144A,≤ -4.2
8,C27U C36U C57U G58A C96A A121U G140A,≤ -4.2
9,A28U C38A C63U G83A C103A,≤ -4.2
10,A28U A110C,≤ -4.2
11,A28C C108A G136A,≤ -4.2
12,A28U G58A G88C G133A A138G G143U,≤ -4.2
13,A29U A37C U55G U135C,≤ -4.2
14,A29G C57A C93A C96A U145G,≤ -4.2
15,A28U C51A A52C C76U U78G A89G,≤ -4.2
16,A29G C54A,-3.78
17,A28G G58C C87U C99U,≤ -4.2
18,A28U C32A G50C C96A A106G U127G,≤ -4.2
19,A30C A60C,≤ -4.2
20,A28U C95U C99U C118A,≤ -4.2
21,A29U G124U,≤ -4.2
22,C27G C75A C79G G92U A121C C131G A147C,≤ -4.2
23,C27U A73G C79A G140C,≤ -4.2
24,A29U G48A A49C C87G,≤ -4.2

row,Variant,polymerase ribozyme fitness (log ratio)
1,A28U A41C U61A C99A A122C,≤ -4.2
2,A28G C57G G84A A98G C114U,≤ -4.2
3,A30C C54U G70U C93A A120U U130A A138G,≤ -4.2
4,A28U A49C G58C G59A G84U U146A C149U,≤ -4.2
5,A28U A41U C93U U144C,-4.14
6,A28U C36A A47G G59A C85A C129U U145A,≤ -4.2
7,C27U G67A C75U G86C U144C C149A A150G,≤ -4.2
8,A28G U44A U45A C76G U111C G133U,≤ -4.2
9,A28C G68A G92C A122G C132G,-3.62
10,A30U C85A C95A C125A U148A,≤ -4.2
11,A29U G58A C85G A138C,≤ -4.2
12,C27U U145G,-1.39
13,A28G C51A G80A,≤ -4.2
14,A28U A60C A91G A98U,≤ -4.2
15,A28G C43G G83U C93A U135G,≤ -4.2
16,C27U C76G G88A C93G G100U,≤ -4.2
17,C27U A47U U53A,-2.28
18,C27G G84A,-3.69
19,A30U G68C G81C G94A A98C U104C,≤ -4.2
20,C27U C96A C105G,-2.96
21,A30U A41G A142G,-3.58
22,A29G C54U G59A C76U U82C G88C C95G C96G,≤ -4.2
23,A28U A49C U56A C95A C96U C108U,≤ -4.2
24,A30U C95A,-3.34

row,Variant,polymerase ribozyme fitness (log ratio)
1,A30C G46C A73G G80C G84A A91G,≤ -4.2
2,A28C A30U,-3.88
3,A28C G50A A97U G124A A138C,≤ -4.2
4,A30G A47G G71C C87G U135G,≤ -4.2
5,C27U U55G C85U A89U,-2.33
6,A30C C32U C36U G70U U139A A142C,≤ -4.2
7,A30C A49U C57G C79A C96U A107U,≤ -4.2
8,A30U C38G C93U,≤ -4.2
9,A29G U31C A52G C57U C85U C87A A150U,≤ -4.2
10,A29U C38A G50C A52C A66U G74C C108G C132A,≤ -4.2
11,A29U U90G C95U A115G G117U A120U,≤ -4.2
12,A30G C79U G140C,≤ -4.2
13,A30G,-2.24
14,A30U,-2.87
15,A30C,-3.12
16,C27U A60G C93A C125G G136A,-2.85
17,A29C G46U U127G,≤ -4.2
18,A28U C32G C87U C99G,≤ -4.2
19,C27U C32G G50A C69A A97G U135G G140A,≤ -4.2
20,A30C C105U,≤ -4.2
21,A30U G58C C95U U135C U144A,≤ -4.2
22,A30C C93U,≤ -4.2
23,A29U G46C G50C C95G C114G,≤ -4.2
24,A28C A40G G59U C87G A110G G143U G152C,≤ -4.2

row,Variant,polymerase ribozyme fitness (log ratio)
1,A30C C69G C76A G94A G140A,≤ -4.2
2,A28C C38A G48C A73G U144C,≤ -4.2
3,A28C G94C,-4.04
4,C27G C95U,-3.51
5,C27G U56A C99A,≤ -4.2
6,A30G A106U A115U C116A A120G,≤ -4.2
7,A30G A41U U55G C93U,≤ -4.2
8,A30C G83C U101G A121U,≤ -4.2
9,A29G C85A C114A A121G U134C,≤ -4.2
10,A28U U82C C93U C96G C105A,≤ -4.2
11,C27U A37C U56G,-2.92
12,A28G G42U G88A C93U C118A,≤ -4.2
13,A28G G92U C93A,≤ -4.2
14,A30C G50C G65A G84A U109G A142U,≤ -4.2
15,A29G C75U C96U U139G,≤ -4.2
16,A29G U53A A110G A120U C123G,≤ -4.2
17,A28U C35A A41U U53A G59A C85U G128A,≤ -4.2
18,A30U G42U G65A G86U A121U,≤ -4.2
19,A28G A47U A49C C85A G136C U146G,≤ -4.2
20,A28C C32U U45A U61G U78G G92C C93A U101G C132A A150C,≤ -4.2
21,A29C A52G U61A A122U G141U,≤ -4.2
22,A28U G94A,≤ -4.2
23,A30U G100U,≤ -4.2
24,A30G A41G A52G,-2.03

row,Variant,polymerase ribozyme fitness (log ratio)
1,A29C U55A U77G U101G U146A U148G,≤ -4.2
2,A28U U82G A137C,≤ -4.2
3,C27G G50A G58A G83U,≤ -4.2
4,C27U A41C A73G C75U C93A,≤ -4.2
5,A29U C54U U56G C57U C93U C103U G133A,≤ -4.2
6,A30C U44A C51U U77C C131G,≤ -4.2
7,A29U A41G G48C A138G,≤ -4.2
8,A28G U44G C51U C75A C76G G84U G140A,≤ -4.2
9,A29G G34A U56A C75U,≤ -4.2
10,A29U U61A G67A C96U,≤ -4.2
11,A30C G74C C75A C76U G84U C87A C116G,≤ -4.2
12,A28U G80U,-4.11
13,C27G U77A G86U A115G C131U G143C U151G,≤ -4.2
14,A28C A66G U148A,≤ -4.2
15,A28G A73U,≤ -4.2
16,C27U C54G G84A C95G A122G,-2.89
17,A30U C93U,-3.92
18,A28C A49U U55A U61A C76A A142C U146A,≤ -4.2
19,A29U G50U U55A G86C G141C,≤ -4.2
20,A29C A49U A150C,≤ -4.2
21,C27U G128A,-4.04
22,A28G A37U C57A C123U G143C,≤ -4.2
23,A28C A39C,≤ -4.2
